Measurements published in the supplement of paper PMC9170038.

Key:
[1] = test system: K4 kissing-loop RNA reporter; assay: apparent KD of K4 kissing-loop reporter; higher = weaker reporter binding; conditions: Eterna round: R107;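 further: bound reporter read as fluorescence of individual clusters on recovered sequencing chips by microscopy, with normalized cluster intensities fitted with a binding model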
Method: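 RNA-MaP round R107: designed RNA switches with theophylline, tryptophan, arginine or FMN aptamers are transcribed on-chip within common flanks. They are titrated with a labelled K4 kissing-loop RNA reporter in RNA-MaP buffer (100 mM Tris pH 7.5, 80 mM KCl, 4 mM MgCl2), without ligand or with the indicated ligand. Median apparent KD per design.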

MS2 coat protein = assay: apparent KD of MS2 coat protein; designed switch direction (-1 OFF switch, 1 ON switch): -1; higher = weaker reporter binding
Summary of the method: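 Transcription of designed RNA switches on Illumina chips was done by stalled E. coli RNA polymerase. SNAP-549-labelled MS2 coat protein was then titrated in doubling steps from 0.7 or 1.5 nM to 3 µM, with steps of 0.8–1.5 h at the lowest and 10–20 min at the highest concentration. The per-design median over clusters of curve-fitted normalised fluorescence is reported as apparent KD.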

[2] = input ligand: theophylline 20 uM
[3] = input ligand: tryptophan 2.4 mM
[4] = input ligand: microRNA oligo, concentration not stated
[5] = Eterna round: R95, input ligand: microRNA oligo, concentration not stated

Sequence	apparent KD of K4 kissing-loop reporter ([1]; input ligand: FMN 200 uM) [µM]	apparent KD of K4 kissing-loop reporter ([1]; input ligand: arginine 13.2 mM) [µM]	apparent KD of K4 kissing-loop reporter ([1]; input ligand: none) [µM]	apparent KD of K4 kissing-loop reporter [1, 2] [µM]	apparent KD of K4 kissing-loop reporter [1, 3] [µM]	apparent KD of MS2 coat protein (MS2 coat protein; input ligand: FMN 200 uM) [µM]	apparent KD of MS2 coat protein (MS2 coat protein; [4]) [µM]	apparent KD of MS2 coat protein (MS2 coat protein; input ligand: none) [µM]	apparent KD of MS2 coat protein (MS2 coat protein; [5]) [µM]
AAAACUAUCAGAAGGAGCGUGGAAUAUUCAUCUGUAUUUAAUACGAGUGAUGUUCGUAAUUCACAGGUAGGUCGCUGAUCAAUAA [whbob_Ex_Arginine_B_2th154]	0.269	0.253	0.306	0.305	0.254				
AAAAUAAGCCAGUGAUGUUGGUAUACAGAUACCAGCGACGAAAGUCGCCCUUGGCAGCUGUGGACGUACAAAAUAAGUACGUCCU	0.364	0.278	0.417	0.78	0.364				
AAAAUAAGCCAGUGAUGUUGGUAUCCAGAUACCAGCGACGAAAGUCGCCCUUGGCAGCUGUGGACGUACAAAAUAAGUACGUCCU	0.194	0.107	0.143	0.266	0.126				
AAACAUCACUGGGAGUGAUGUUCUCAGUGACGAGGACCGGUACGGCCGCCACUCGCGAGAGAUAUAGAUAAGUAAUGACAUCAUU [Excl Tryptophan A V4]	0.347	0.298	0.354	0.39	0.433				
AAACAUCACUGGGAGUGAUGUUCUCAGUGACGAGGACCGGUACGGCCGCCACUCGCGAGAGAUAUAGUUAAGUAAUGACUGCAUU [Excl Tryptophan A V7]	0.324	0.251	0.294	0.333	0.324				
AAACAUCACUGGGAGUGAUGUUCUCAGUGACGAGGACCGGUACGGCCGCCACUCGCGAGAGAUCUAGUCUAGUCUUGACUGCAUU [Excl Tryptophan A V13]	0.282	0.284	0.292	0.359	0.333				
AAACAUUGGUCUGAUACCAGCUGAUCGGAAACGAUCUUGCUGGAGUGAUGUUCCAAGUAAAGCCCUUGGCAGCAGACCGAUGAAA [MAT - Same State Theophlline B - Mod of Eli - D19]	0.108	0.0533	0.0726	0.107	0.0818				
AAACGCUGGAUGAAUAACAUCUAGCGAAUUCGAGGACCGGUACGGCCGCCACUCGAGCUAACUGCGAGUGAUGUUCGAUAAUAAA [Mat - Mod of OpenEnded 3 - D1]	0.306	0.451	0.441	0.524	0.0809				
AAACGUCGGAAGUGAUGUUGAUGACGUAGUAAGGAUAUUGGACGCGCAAGAAGGUACUGGCAAACUAAGGACAUCCUGGAUAUUC [theeternabot_exclusion_KL_FMN_A_47]	0.33	0.251	0.232	0.243	0.254				
AAACGUUGGUCGGAUACCAGCUUGAUCGGAAAACGAUCUGCUGGAGUGAUGUUCCAAUAAAGCCCUUGGCAGCCGACCGACGAAA [MAT - Same State Theophlline B - Mod of Eli - D15]	0.662	0.659	1.03	0.746	0.747				
AAACUUGCAGUGAUGUUGCAAGUAGGUGAUACCAGCAUCGAAAGAUGCCCUUGGCAGCACCAAAACAUCACUUAGGUAUCACCAA [(H1)-(H2)-(T1)-(T2)-(H)'-(T)'_Design3]	0.191	0.192	0.21	0.234	0.175				
AAAGAUCUUCUAGAAACUAGAAGAUCAAGAGAGGAUAUCCGAAUUCGGAGAAGGCUCACUAAGUGAUGUUUGGAGCCAAUGGCAA [AK2 SS FMN A]	1.06	1.1	1.21	1.09	0.932				
AAAUAGAUCAGUCACCCAGUGAUGUUGGAAGGAGCGUGCGAAAGCACAGGUAGGUCGCCAGAAUAAAAUUGGCUGAUCAAAAUAA	0.26	0.337	0.212	0.393	0.149				
AAAUAGAUCAGUCAUCCAGUGAUGUUGGAAGGAGCGUGCGAAAGCACAGGUAGGUCGCCAAAAUAAAACUGGCUGAUCAAAAUAA	0.292	0.292	0.338	0.453	0.27				
AAAUAGAUCAGUCAUCCAGUGAUGUUGGAAGGAGCGUGCGAAAGCACAGGUAGGUCGCCGAAAUAAAAGUGGCUGAUCAAAAUAA	0.128	0.216	0.143	0.193	0.102				
AAAUUCUUUUUUUUAUAUAACAAUUCAGAAGGAGCGUGGUAGAACACAGGUAGGUCGCUGAAUAUAAGACUAGUGAUGUUAGUAA [JR_SSArginiA_Sub010]	0.153	0.192	0.203	0.214	0.153				
AAAUUCUUUUUUUUAUUUAACUUUUCAGAAGGAGCGUGGUAGUACACAGGUAGGUCGCUGAAUUUUGGGCUAGUGAUGUUAGUUA [whbob_SS_Arginine_A_sa113]	0.221	0.217	0.258	0.311	0.193				
AACACCCGCUAUGAUACCAGUGAAGUGAUGUUUUACUCCGGGCGUAAGACAAAGGUCAGCCACCCUUGGCAGCAUAUCCGCGUAU [theeternabot_exclusion_KL_Theo_B_35]	0.721	0.418	0.594	0.49	0.44				
AACAUUUUCAGAAGGAGCGUGAAUUAUUCAUAAUUAUAUUAUACGAGUGAUGUUCGUAUUUCACAGGUAGGUCGCUGAUAUAUUA [JR_SSArginiB_Sub001]	0.113	0.133	0.114	0.133	0.107				
UUUUACAUAGGAUAUAGUUGCUUUUACAUGAGGAUCACCCAUGUCUCUCCUCUCUCUCUUCUAGAAGGAUGUUUCU [JR_E5_Sub011] (Eterna round: R96, puzzle: Exclusion 5)						0.0553	0.0357	0.047	
UUUUACAUAGGAUAUAGUUGCUUUUACAUGAGGAUCACCCAUGUCUCUCCUCUCUCUCUUCUAGAAGGAUGUUUCU [JR_E5_Sub011] (puzzle: Exclusion 5)									0.0533
UUUUAGGGAGGAUAUACAUUUUUUUUAUUAUCCUCAUUAAUACAUGAGGAUCACCCAUGUAGAAGGCCCAUUUU [Mat - Exclusion 2 - Mod of Hog - D84] (puzzle: Exclusion 2)									0.0479
UUUUAGUCAGGAUAUACAUUUUUUUAAUUAUUUAUAAUAUUACAUGAGGAUCACCCAUGUAGAAGGGACAUUUU [My Design] (puzzle: Exclusion 2)									0.0286
UUUUGCUCAGGAUAUACAUGAGGAUCACCCAUGUAUAUUGAAAAUAAUACAUGGGAAUGUAGAAGGGAGCUCAU [Omei Ex3 Pseudoloop 20] (Eterna round: R97, puzzle: Exclusion 3)						0.127		0.168	
UUUUGGCAUGUAGGAUAUGGGUCCGAUUGGGAUUUAGAAGGACAUGAGGAUCACCCAUGUGCCCUUACUUGGUGUUUUUUUUUU [EXclNG1-LROPPY20] (Eterna round: R96, puzzle: Exclusion NG 1)						0.126	0.0446	0.0916	
UUUUUACAUGAGGAUCACCCAUGUGAGGAUAUGGUUUCGCUGGCCGUAGCCAGUGGAACCAGAAGGCGCAUGAU [Mat - Exclusion 1 - JL Mod - D8] (Eterna round: R97, puzzle: Exclusion 1)						0.374		0.0847	
UUUUUACGAGGAUAUCGAUUGUGGUACAUGAGGAUCACCCAUGUAUGUGAUAUUGUAUUUCGAGAAGGCGUUCAGU [JR_E5_Sub060] (puzzle: Exclusion 5)									0.0215
UUUUUCUCAGGAUAUACAUGAGGAUCACCCAUGUAUAUUGAUGAUAAUACAUGGGAAUGUAGAAGGGAGCUCAU [Omei Ex3 Pseudoloop 16] (Eterna round: R97, puzzle: Exclusion 3)						0.0879		0.0957	
UUUUUUGUUGUGAGGAUAUCGUUGUUGUUGUGGAUCGAGAAGGCACAUGAGGAUCACCCAUGUUUGUUGUGGUU [JR_BMOE4_Sub086] (Eterna round: R96, puzzle: Brourd's mod of Exclusion 4)						0.272	0.0812	0.109	
UUUUUUGUUGUGAGGAUAUCGUUGUUGUUGUGGAUCGAGAAGGCACAUGAGGAUCACCCAUGUUUGUUGUGGUU [JR_BMOE4_Sub086] (puzzle: Brourd's mod of Exclusion 4)									0.0837
